Results taken from US20240252614A1 (Pfizer, published 2024).

Tests used:
Test in all cases: BLI, no stress
hMPV048 = target: T1, hMPV048 (hMPV A, UniProt Q6WB98 19-102)
T1 construct: L141C-A161C
Description: (§1) The OCTET HTX (Sartorius, Gottingen, Germany) instrument was used to evaluate the expression and conformational integrity for each mutant. All measurements were conducted at 30° C. temperature in 96-well black plates (Corning, Corning, NY) with a final volume of 240 μL per well at a constant agitation rate of 1000 RPM.
(§2) Conformation integrity of hMPV A F protein mutants were evaluated by thermal stress experiments. Crude cell culture supernatants were normalized based on the results of the titer quantitation and then incubated for 1 hour at room temperature and two higher temperatures. […] Anti-Human IgG Fc Capture (AHC) biosensors were first equilibrated in PB before being dipped into more PB to establish the initial baseline. […] The mAb-bound biosensors were then dipped into the thermal stressed cell culture supernatants for 5 minutes. The kinetics analysis was done by OCTET data analysis software (version 12.0, Sartorius) based on curve fitting of the entire associate step.

hMPV052 = target: T2, hMPV052 (hMPV A, UniProt Q6WB98 19-102)
T2 construct: L66P
Description: as §1, §2

hMPV055 = target: T3, hMPV055 (hMPV A, UniProt Q6WB98 19-102)
T3 construct: N145P
Description: as §1, §2

hMPV058 = target: T4, hMPV058 (hMPV A, UniProt Q6WB98 19-102)
T4 construct: L187P
Description: as §1, §2

hMPV062 = target: T5, hMPV062 (hMPV A, UniProt Q6WB98 19-102)
T5 construct: G121A
Description: as §1, §2

hMPV068 = target: T6, hMPV068 (hMPV A, UniProt Q6WB98 19-102)
T6 construct: A159V
Description: as §1, §2

hMPV044 = target: T7, hMPV044 (hMPV A, UniProt Q6WB98 19-102)
T7 construct: T411C-Q434C
Description: as §1, §2

hMPV B F WT Control = hMPV B F WT Control (hMPV B, UniProt Q6WB98 19-102)
hMPV117 = target: T8, hMPV117 (hMPV B, UniProt Q6WB98 19-102)
T8 construct: T150C-R156C, A459P

hMPV119 = target: T9, hMPV119 (hMPV B, UniProt Q6WB98 19-102)
T9 construct: T49I, T150C-R156C, A459P

hMPV120 = target: T10, hMPV120 (hMPV B, UniProt Q6WB98 19-102)
T10 construct: A140C-S149C, T411C-Q434C

hMPV121 = target: T11, hMPV121 (hMPV B, UniProt Q6WB98 19-102)
T11 construct: L141C-A161C, T411C-Q434C

hMPV122 = target: T12, hMPV122 (hMPV B, UniProt Q6WB98 19-102)
T12 construct: A140C-S149C, T411C-Q434C, A459P

hMPV123 = target: T13, hMPV123 (hMPV B, UniProt Q6WB98 19-102)
T13 construct: A140C-S149C, G239A, T411C-Q434C

hMPV124 = target: T14, hMPV124 (hMPV B, UniProt Q6WB98 19-102)
T14 construct: L141C-A161C, T411C-Q434C, A459P

hMPV126 = target: T15, hMPV126 (hMPV B, UniProt Q6WB98 19-102)
T15 construct: T49I, T150C-R156C, G239A, A459P

hMPV127 = target: T16, hMPV127 (hMPV B, UniProt Q6WB98 19-102)
T16 construct: A140C-S149C, G239A, T411C-Q434C, A459P

hMPV128 = target: T17, hMPV128 (hMPV B, UniProt Q6WB98 19-102)
T17 construct: T49I, A140C-S149C, G239A, T411C-Q434C, A459P

hMPV129 = target: T18, hMPV129 (hMPV B, UniProt Q6WB98 19-102)
T18 construct: T49I, A140C-S149C, G239A, T365I, T411C-Q434C, A459P

hMPV130 = target: T19, hMPV130 (hMPV B, UniProt Q6WB98 19-102)
T19 construct: L141C-A161C, G239A, T411C-Q434C, A459P

hMPV132 = target: T20, hMPV132 (hMPV B, UniProt Q6WB98 19-102)
T20 construct: L141C-A161C, S149T, G239A, T411C-Q434C, A459P

hMPV133 = target: T21, hMPV133 (hMPV B, UniProt Q6WB98 19-102)
T21 construct: T49I, L141C-A161C, S149T, G239A, T411C-Q434C, A459P

hMPV134 = target: T22, hMPV134 (hMPV B, UniProt Q6WB98 19-102)
T22 construct: T49I, L141C-A161C, S149T, G239A, T365I, T411C-Q434C, A459P

hMPV135 = target: T23, hMPV135 (hMPV B, UniProt Q6WB98 19-102)
T23 construct: T49I, S149T, A459P

hMPV136 = target: T24, hMPV136 (hMPV B, UniProt Q6WB98 19-102)
T24 construct: A140C-S149C, A459P

hMPV137 = target: T25, hMPV137 (hMPV B, UniProt Q6WB98 19-102)
T25 construct: T49I, A140C-S149C

hMPV138 = target: T26, hMPV138 (hMPV B, UniProt Q6WB98 19-102)
T26 construct: T49I, A140C-S149C, A459P

hMPV139 = target: T27, hMPV139 (hMPV B, UniProt Q6WB98 19-102)
T27 construct: T49I, L141C-A161C, T411C-Q434C

hMPV140 = target: T28, hMPV140 (hMPV B, UniProt Q6WB98 19-102)
T28 construct: T49I, L141C-A161C, T411C-Q434C, A459P

hMPV142 = target: T29, hMPV142 (hMPV B, UniProt Q6WB98 19-102)
T29 construct: L141C-A161C, S149T, A459P

hMPV144 = target: T30, hMPV144 (hMPV B, UniProt Q6WB98 19-102)
T30 construct: T49I, L141C-A161C, S149T, A459P

B1: hMPV-2 mAb (antibody, V domains shown)
VH: QVQLQQSGAEVKKPGASVKVSCKASGYTFTSYGISWVRQAPGQGLEWMGWISGYNGNTNYAQTFQGTFTMTTDTSTSTAYMELRRLRSGDTAVYYCARDRYYASGSYNGMDVWGQGTTVTVSS
VL: QSALTQPPSASGAPGQRVTVSCSGSSSNVGSSSVYWYQQLPGTAPKLLIYRNNQRPSGVPDRFSGSKSGTSASLAISGLRSEDEADYYCAAWDDSLSGWVFGGGTKLTVLG
notes: human IgG1
For B1, the “Response Shift” value (hMPV048) was 0.585 nm, the “Response Shift” value (hMPV052) was 0.739 nm and the “Response Shift” value (hMPV055) was 0.627 nm. The “Response Shift” value (hMPV058) was 0.709 nm, the “Response Shift” value (hMPV062) was 0.774 nm and the “Response Shift” value (hMPV068) was 0.783 nm. For the same binder, the “Response Shift” value (hMPV044) was 0.797 nm, the “Response Shift” value (hMPV B F WT Control) was 0.82 nm and the “Response Shift” value (hMPV117) was 0.723 nm. The “Response Shift” value (hMPV119) was 0.864 nm, the “Response Shift” value (hMPV120) was 0.593 nm and the “Response Shift” value (hMPV121) was 0.842 nm. For the same binder, the “Response Shift” value (hMPV122) was 0.73 nm, the “Response Shift” value (hMPV123) was 0.619 nm and the “Response Shift” value (hMPV124) was 0.833 nm. For the same binder, the “Response Shift” value (hMPV126) was 0.773 nm, the “Response Shift” value (hMPV127) was 0.719 nm and the “Response Shift” value (hMPV128) was 0.777 nm. The “Response Shift” value (hMPV129) was 0.687 nm, the “Response Shift” value (hMPV130) was 0.71 nm and the “Response Shift” value (hMPV132) was 0.704 nm. The “Response Shift” value (hMPV133) was 0.677 nm, the “Response Shift” value (hMPV134) was 0.718 nm and the “Response Shift” value (hMPV135) was 0.73 nm. The “Response Shift” value (hMPV136) was 0.591 nm, the “Response Shift” value (hMPV137) was 0.663 nm and the “Response Shift” value (hMPV138) was 0.681 nm. The “Response Shift” value (hMPV139) was 0.699 nm, the “Response Shift” value (hMPV140) was 0.731 nm and the “Response Shift” value (hMPV142) was 0.731 nm. The “Response Shift” value (hMPV144) was 0.712 nm.
